Measured values reported in the nanobody polyreactivity screen of Harvey et al. (2022).

Test: yeast display, Sf9 membrane polyspecificity reagent, FACS + sequencing; frameworks hold sequencing errors
How it was run: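 Sorting gates, low and high (top ~1%), were placed on anti-HA fluorescence to track expression and on streptavidin fluorescence to track reagent binding. A clone's polyreactivity label is taken from the gate it came out of. The reagent was 10% biotinylated, detergent-solubilized Sf9 membrane, applied for 1 hour at 4 °C to galactose-induced yeast display cells.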

Sequence | polyreactivity (PSR sort gate)
QVQLVESGGGLVQAGGRLRLSCAASGIIFRWYTMGWYRQAPGKERELVAAISTSTGSTYYADSVKGRFTISRDNAKNTVYLQMNSLKPEDSAVYYCAAVYAYWNYESYYWGQGTQVTVSS | high polyreactivity
QVQLVESGGGLVQAGGRLRLSCAASGIIFVYYAMGWYRQAPGKERELVADITRSGSSTYYADSVKGRFTISRDNAKNTVYLQMNSLKAEDTAVYFCAADNFYQAYGYWGQGTQVTVSS | low polyreactivity
QVQLVESGGGLVQAGGRLRLSCAASGIILYGYAMGWYRQAPGKARELVAAITWSGGSTYYADSVKGRFTISRDNAKNTVYLQMNSLKPEDTAVYYCAVDVHTSADASLPQEYDYWGQGTQVTVSS | low polyreactivity
QVQLVESGGGLVQAGGRLRLSCAASGINFSHKVMGWYRQAPGKERELVAAITYSGGSTYYADSVKGRFTSSRDNAKNTVYLQMNSLKPEDTAVYYCNALGVSRRDYDYWGQGTQVTVSS | low polyreactivity
QVQLVESGGGLVQAGGRLRLSCAASGISFDWYAMGWYRQAPGKERELVAAITVGASTYADSVKGRFTISRDNAKNTDYLQMNSLIPEDTAVYYCTFPVFVDYGFYTIGHDYWGQGTQVTVSS | low polyreactivity
QVQLVESGGGLVQAGGRLRLSCAASGITFWNYAMGWYRQAPGKETELVAAITGGSTYYADSVKGRFTISRDYAKNTVYLQMNSLKPEDTAVYYCNADSLFEYWDYDYWGQGTQVTVSS | low polyreactivity
QVQLVESGGGLVQAGGRLRLSCAASGITYEPYAMGWYRQAPGKERELVAAISRSGGSTYYADSVKGRFTISRDNAKNTVYLQMNSLKPVDTAVYYCNALRGTASRRGYYWGQGTQVTVSS | high polyreactivity
QVQLVESGGGLVQAGGRLRLSCAASGITYTVYAMGWYRQAPGKERELLAAISSSGSTTYADSVNGRFTISRDNAKNTVYLLMNSLKPEDTAVYDCAAEGYYRFSTAYFRLKYEYWGQGTQVTVSS | low polyreactivity
QVQLVESGGGLVQAGGRLRLSCAASGLTFASYALGWYRQAPGKERELVARISRSGGSTYYADSVKGRFTISRDNAKNTVYLQMNSLIPEDTAVYYCAADYIFRRYPVGGIYDYDYWGQGTQVTLSS | high polyreactivity
QVQLVESGGGLVQAGGRLRLSCAASGNIFHYNAMGGSRQAPGKERELVAAITWSGGNTYYADSVKGRFTISRDNAKNTVYLQLNSLKPEDTAVYYCAAEFPQRATGGRYKTEYDYWGQGTQVTVSS | low polyreactivity
QVQLVESGGGLVQAGGRLRLSCAASGNIFYAYALGWYRQAPGKERELVAAISWSGDSTYYADSVKGRFTISRDNAKNTVYLQMNSLKPEDTAVYYCAARKVTYHYQWMDYWGQGTQVTVSS | low polyreactivity
QVQLVESGGGLVQAGGRLRLSCAASGRIFERYAMGWYRQAPGKERELVATISTSGGSTYYADSVKGRFTISRDNAKNTVYLQMNSLKPEDTAVYYCAAPYQRRRYYYWGQGTKVTVSS | high polyreactivity
QVQLVESGGGLVQAGGRLRLSCAASGRIFGYYAMGWYRQAPGKERELVAAISYRGGTTYYADSVKGRFTISRDNAKNTVYLQMNSLKPEDTAVYYCAAAAKSGLDYWGQGTQVTVSS | high polyreactivity
QVQLVESGGGLVQAGGRLRLSCAASGRIFIKNAMGWYRQAPGKESELVAAISDSGDSTYYAVSVKGRFTISRDNAKNTVYLQMNSLKPEDTAVYYCAADGADHRSEMYYWGQGTQVTVSS | low polyreactivity
QVQLVESGGGLVQAGGRLRLSCAASGRIFIYYAMGLYRQAPGKERELVAAISWGGGRTYYADSVKGRFTISRDNAKNTVYLQMNSLKPEDTAVYYCAAGVYTGQHEYDYWGQGTQVTVSS | low polyreactivity
QVQLVESGGGLVQAGGRLRLSCAASGRIFNHYAMGWYRQAPGKERELVAAITFSGGSTYYADSVKGRFTISRDNAKNTVHLQMNSLKPEHTAVYYCANRFSYRYGLQYDYWGQGTQGTVSS | high polyreactivity
QVQLVESGGGLVQAGGRLRLSCAASGRIFPWYAMGWSRPAPGKERELVAAISWSGGRTYYADSVKGRFTISRDNAKNTVYLQMNSLKPEDTAVDYCNADKWRYPLSGWWKRYDYWGQGTQVTVSS | high polyreactivity
QVQLVESGGGLVQAGGRLRLSCAASGRIFQHNTMGWYRQAPGKEREFVAAIRRSGGSTYYADSVKGRFTISRDNAKNTVYLQMNSLRPEDTAVYYCAARDYPTGTRRWGGGDSWGQGTQVTVSS | low polyreactivity
QVQLVESGGGLVQAGGRLRLSCAASGRIFSINAMGWYRQAPGKERELVAAISNRGGSTYYADSVKGRFTISRDNAKNTVYLQLNSLKPEDTAVYYCAARVATSGNYAPYYYWGQGTQVTVSS | high polyreactivity
QVQLVESGGGLVQAGGRLRLSCAASGRIFWINDMGWYRQAPGKERELVAAITWSGASTYYADSVKGRFTISRDNAKNTVYLQMNSLKPEDTAVYYCAAVIADSLYYSYDYWGQGTQVTVSS | high polyreactivity
QVQLVESGGGLVQAGGRLRLSCAASGRIFWTYAMGWYRQAPGKERELVAAISSGGSTNYADSVKGRFTISRDNAKNTVYLQMNSLKPEDTAVYYCAADRWYREYDYWGQGTQVTVSS | low polyreactivity
QVQLVESGGGLVQAGGRLRLSCAASGRIYTAYYAMGWYIQAPGKERELVASISSSGTSTYADSVKGRFTISRDNAKNTVYLQMNSLKPEDTAVYYCATRKLRTRRYDYGYWGQGTQVTVSS | low polyreactivity

Sequence | polyreactivity (PSR sort gate)
QVQLVESGGGLVQAGGRLRLSCAASGRNFEPYAMGWYRQAPGKERELVAAISRSGGRTYYADSVKGRFTISRDNAKNTVYLQMNSLKPEDTAVYYCAAVGVYWYVYPHEYDYWGQGTQVTVSS | high polyreactivity
QVQLVESGGGLVQAGGRLRLSCAASGRTFGYNAMGWYRQAPGKERELVAAITYSGGRTYYADSVKGRFTISRDNAKNTVYLQMNSLKPEDTAVYYCAALTRRVKKYDYWGQGTQVTVSS | high polyreactivity
QVQLVESGGGLVQAGGRLRLSCAASGRTFSKYGMGGYRQAPGKEREFVAAISSSGDSTTYADSVKGRFTISRDNAKNAVYLQMNSLKPEDTAVSYCARQTSRYTGGERAYGYWGQGTQVTVSS | low polyreactivity
QVQLVESGGGLVQAGGRLRLSCAASGRTFTQYTMGWYRQAPGKERELVAAISSGGSTYYADSVKGRFTISRDNAKNTVFLQMNSLNPEDTAVYYCAARSYYAKSRYYYWGQGTQVTVSS | high polyreactivity
QVQLVESGGGLVQAGGRLRLSCAASGRTFYTYAMGWYRQAPGKERELVAAITSGGSTYSADSVKGRFTISRDNAKNTVYLQMNSLKPEDTAVYYCAAEFYYWRGFDYWGQGTQVTVSS | low polyreactivity
QVQLVESGGGLVQAGGRLRLSCAASGRTILSYAMGWYRQAPAKERELVAAITGSGGRKYYADSVKGRFTISRENAKNTVYLQMNSLKPEDTAVYYCATRWIKGRKMDYWGQGTQVTVSS | high polyreactivity
QVQLVESGGGLVQAGGRLRLSCAASGRTMGWYRQAPRKERELVAAITSGGGSTYYADSVKWRFTISRDNAKNTVYLQMNSLKPEDTAVYYCARTTIAQLHSIVAPHDYWGQGTQVNVSS | low polyreactivity
QVQLVESGGGLVQAGGRLRLSCAASGSIFERNVMGWYRQAPGKERELVAAITSGGSTNYADSVKGRFTISRDNAKNTVYLQMNSLKPEETAVYYCAADVPYRSRFYRYRLSGGDYWGQGSQVTVSS | low polyreactivity
QVQLVESGGGLVQAGGRLRLSCAASGSIFFDNTMGWYRQAPWKERELVASITYSGSTYADSVKGRFTISRDNAKNTVYLQMNSLKPEDTAVYYCNTESYWKVERFDYWGQGTHVTVSS | low polyreactivity
QVQLVESGGGLVQAGGRLRLSCAASGSIFHLYMGWYRQAPGKERELVAVINSSGDSTYYADSVKGRFTISRDNAKNTVYLQMNSLKPEDTAVYYCNARRRGPRYLYGYWGQGSQVTVSS | high polyreactivity
QVQLVESGGGLVQAGGRLRLSCAASGSIFHYNAMGWYRQAPGKESELVAAITTSGGSTYYADSVKGRFTISLDNAKNSVYLQMNSLKPEDTAVYYCNVVTRYYTMEYWGQGTQVTVSS | high polyreactivity
QVQLVESGGGLVQAGGRLRLSCAASGSIFPFYAMGWYRQAPGKERELVAAISDRGGSTYYADSVKGRFTISRDNAKNTVYLQMISLKPEDTAVYYCAKGGEVSQGYTDEYDYWGQGTQVTVSS | low polyreactivity
QVQLVESGGGLVQAGGRLRLSCAASGSIFQFYAMGWYRQAPGKERELVAAINWSGGSTYYADSVKGRFTISRDNAKNTVYLQMNSLKPEETAVYYCNALRRIGRYYKAGGYGYWGQGTQVTVSS | high polyreactivity
QVQLVESGGGLVQAGGRLRLSCAASGSIFRLYAMGWYRQAPGKEREFVAGITRRTGSTYYADSVKGRFTISRDNAKNTVNLQMNSLKPEDTAVYYCAKRDARATPFGYWGQGTQVTVSS | high polyreactivity
QVQLVESGGGLVQAGGRLRLSCAASGSIFRRYAMGWYRQAPGKERELVAAISSKGGSTYYADSVKGRFTISRDNAKNTVYLQMNSLKPEDTAVYYCNAQLVHYRFSSVFTYTIDDYWGQGTQVTVSS | high polyreactivity
QVQLVESGGGLVQAGGRLRLSCAASGSIFRWYAMGLYRQAPGKERELVAAITSGGSTYYADSVKGRFTISRDNAKNCVYLQMNSLKPEDTAVYYCNAKTYYPPFGYWGQGTQVTVSS | low polyreactivity
QVQLVESGGGLVQAGGRLRLSCAASGSIFYNYAMGWYRQAPGKERELVAAITRSGGSTYYADSVKGRFTISRDNAKNTVYLQMNSLKPEDTAVYYCAARYPFGSLGRYGYWGQGTQVTVSS | high polyreactivity
QVQLVESGGGLVQAGGRLRLSCAASGSIIISNGMGWSRQAPGKERELVATISWIGGSTYYADSVKGRFTISRDNAKNTVYLQMNSLKPEDTAVYYCAADVVLARPFEGDYWGQGTQVTVSS | low polyreactivity
QVQLVESGGGLVQAGGRLRLSCAASGSIYDDYAMGWNRQAPGKEREFVAAIDYSGGSTYYADSVKGRFTISRDNAKNTVYFQKNSLKPEDTAVYYCAKEAITRTFQYRHDYWGQGTQVTVSS | low polyreactivity
QVQLVESGGGLVQAGGRLRLSCAASGSTFGANAMGWYRQAPGKEREFVAAISRSGVRTYYADSVKGRFTISRDNAKNTVFLQMNSLKPEDTAVYYCAADGYWWTDTRYDYCGQGTQVTVSS | low polyreactivity
QVQLVESGGGLVQAGGRLRLSCAASGSTFPKYAMGWYRQAPGKERELVASISVTTGSTYYADSVKGRFTISRDNAKNTVYLQMNSLKPEDTAVYYCAKRTYSRKFRGAYNYWGQGTQVTVSS | high polyreactivity
